Experimental findings from patent US20040208887A1 are described below.

Assay [1] concerns the target recombinant E1/E2 heterodimer protein (genotype 1a) (hepatitis C virus genotype 1a) (UniProt P26664). In words: ELISA, E1/E2 heterodimer coated; control Fab.
In assay [2] the target is recombinant soluble HCV E1 protein (hepatitis C virus). In words: ELISA, recombinant E1 captured on GNA lectin; control Fab.
In a further assay the target is BSA (Sigma) (UniProt P02769). In words: ELISA, BSA coated as negative control antigen; control Fab.
Chain of BSA (Sigma) (P02769 25-607 limits assumed): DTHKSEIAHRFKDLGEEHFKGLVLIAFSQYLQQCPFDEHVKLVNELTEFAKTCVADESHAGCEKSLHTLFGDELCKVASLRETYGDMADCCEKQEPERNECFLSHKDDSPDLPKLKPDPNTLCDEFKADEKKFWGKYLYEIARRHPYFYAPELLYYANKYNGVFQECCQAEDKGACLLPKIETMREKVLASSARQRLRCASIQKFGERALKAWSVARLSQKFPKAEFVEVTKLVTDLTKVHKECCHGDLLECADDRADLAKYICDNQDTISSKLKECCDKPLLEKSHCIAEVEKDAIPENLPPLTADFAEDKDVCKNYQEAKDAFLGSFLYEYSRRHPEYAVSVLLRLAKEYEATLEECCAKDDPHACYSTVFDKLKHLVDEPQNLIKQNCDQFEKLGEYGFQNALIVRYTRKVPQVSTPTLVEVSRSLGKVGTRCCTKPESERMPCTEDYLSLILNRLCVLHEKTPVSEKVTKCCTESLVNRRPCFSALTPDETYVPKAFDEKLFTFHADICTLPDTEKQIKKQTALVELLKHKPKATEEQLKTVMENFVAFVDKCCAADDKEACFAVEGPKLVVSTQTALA

Chain of recombinant E1/E2 heterodimer protein (genotype 1a) (hepatitis C virus genotype 1a) (P26664 192-383 limits assumed, chain 1 of 2): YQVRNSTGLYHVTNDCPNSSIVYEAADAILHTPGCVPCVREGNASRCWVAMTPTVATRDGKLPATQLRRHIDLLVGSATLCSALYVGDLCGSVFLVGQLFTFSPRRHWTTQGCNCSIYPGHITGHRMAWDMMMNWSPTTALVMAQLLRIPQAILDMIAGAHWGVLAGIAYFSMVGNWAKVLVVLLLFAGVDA
Chain of recombinant E1/E2 heterodimer protein (genotype 1a) (hepatitis C virus genotype 1a) (P26664 384-746 limits assumed, chain 2 of 2): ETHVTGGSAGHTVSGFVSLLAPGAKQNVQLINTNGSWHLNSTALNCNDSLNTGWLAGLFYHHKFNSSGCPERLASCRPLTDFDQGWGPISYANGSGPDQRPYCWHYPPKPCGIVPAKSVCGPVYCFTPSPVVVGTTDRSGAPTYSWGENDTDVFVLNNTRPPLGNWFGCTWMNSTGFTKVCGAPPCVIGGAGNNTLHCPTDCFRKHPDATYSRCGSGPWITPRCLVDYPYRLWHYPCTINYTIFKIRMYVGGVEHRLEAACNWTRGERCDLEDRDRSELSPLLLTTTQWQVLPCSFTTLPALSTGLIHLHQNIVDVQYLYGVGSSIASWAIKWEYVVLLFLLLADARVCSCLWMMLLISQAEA

For non-specific Fab, the OD405 nm in assay [1] worked out at 0.11 OD405 nm; in assay [2], 0.2 OD405 nm; with BSA (Sigma) it was 0.14 OD405 nm.
